{"source": "patent US20040071690A1", "key": {"[1]": {"biological_target": "NC41 Fab", "assay": "gel filtration FPLC on Superose 12"}, "[2]": {"biological_target": "NC41 Fab", "assay": "sedimentation equilibrium of the isolated complex"}, "[3]": {"biological_target": "NC41 Fab", "assay": "BIAcore SPR; NC41 Fab immobilised, scFv as analyte (apparent, multivalent)"}, "[4]": {"biological_target": "NC41 Fab", "assay": "BIAcore SPR; NC41 Fab immobilised, scFv as analyte"}, "[5]": {"biological_target": "NC10 scFv-5 dimer", "assay": "BIAcore SPR; scFv-5 dimer immobilised (200 RU), Fab′ as analyte"}, "[6]": {"biological_target": "NC10 scFv-0 trimer (VH-VL)", "assay": "BIAcore SPR; scFv-0 trimer immobilised (450 RU), Fab′ as analyte"}, "[7]": {"biological_target": "NC10 scFv-10 dimer", "assay": "BIAcore SPR; scFv-10 dimer immobilised (200 RU), Fab′ as analyte"}, "[8]": {"biological_target": "NC10 scFv-15 monomer", "assay": "BIAcore SPR; scFv-15 monomer immobilised (2000 RU), Fab′ as analyte"}, "[9]": {"biological_target": "NC10 scFv-15 monomer", "assay": "BIAcore SPR; scFv-15 monomer immobilised (~2000 RU), from the RU increase"}, "[10]": {"biological_target": "Anti-idiotype 3-2G12 Fab′", "assay": "sedimentation equilibrium of the isolated complex, fitted as a single species"}, "[11]": {"biological_target": "Anti-idiotype 3-2G12 Fab′", "assay": "sedimentation equilibrium of the isolated complex"}, "[12]": {"biological_target": "Anti-idiotype 3-2G12 Fab′", "assay": "BIAcore SPR; 3-2G12 Fab′ immobilised (1000 RU), scFv as analyte"}}}
{"substance": "11-1G10 scFv-0 trimer", "values": [{"measurement": "apparent molecular mass of complex", "setting": "[1]", "value": 245, "unit": "kDa"}, {"measurement": "molecular mass of complex (experimental)", "setting": "[2]", "value": 262000, "unit": "Da"}, {"measurement": "koff", "setting": "[3]", "value": "8.2e-05", "unit": "s⁻¹"}]}
{"substance": "11-1G10 scFv-15 monomer", "values": [{"measurement": "apparent molecular mass of complex", "setting": "[1]", "value": 79, "unit": "kDa"}, {"measurement": "molecular mass of complex (experimental)", "setting": "[2]", "value": 78600, "unit": "Da"}, {"measurement": "koff", "setting": "[4]", "value": 0.00032, "unit": "s⁻¹"}]}
{"substance": "Anti-idiotype 3-2G12 Fab′", "values": [{"measurement": "Ka", "setting": "[5]", "value": "1.06e+08", "unit": "M⁻¹"}, {"measurement": "koff", "setting": "[5]", "value": 0.0033, "unit": "s⁻¹"}, {"measurement": "kon", "setting": "[5]", "value": 350000, "unit": "M⁻¹ s⁻¹"}, {"measurement": "Ka", "setting": "[6]", "value": "1.13e+08", "unit": "M⁻¹"}, {"measurement": "koff", "setting": "[6]", "value": 0.0023, "unit": "s⁻¹"}, {"measurement": "kon", "setting": "[6]", "value": 260000, "unit": "M⁻¹ s⁻¹"}, {"measurement": "Ka", "setting": "[7]", "value": "1.3e+08", "unit": "M⁻¹"}, {"measurement": "koff", "setting": "[7]", "value": 0.0029, "unit": "s⁻¹"}, {"measurement": "kon", "setting": "[7]", "value": 370000, "unit": "M⁻¹ s⁻¹"}, {"measurement": "Ka", "setting": "[8]", "value": "2.5e+08", "unit": "M⁻¹"}, {"measurement": "koff", "setting": "[8]", "value": 0.0021, "unit": "s⁻¹"}, {"measurement": "kon", "setting": "[8]", "value": 500000, "unit": "M⁻¹ s⁻¹"}, {"measurement": "percent of immobilised protein active", "setting": "[9]", "value": "< 10", "unit": "%"}]}
{"substance": "NC10 scFv-0 trimer (VH-VL)", "values": [{"measurement": "molecular mass of complex (measured, apparent average)", "setting": "[10]", "value": 212000, "unit": "Da"}]}
{"substance": "NC10 scFv-5 dimer", "values": [{"measurement": "molecular mass of complex (measured)", "setting": "[11]", "value": 156000, "unit": "Da"}]}
{"substance": "NC10 scFv-15 monomer", "values": [{"measurement": "molecular mass of complex (measured)", "setting": "[11]", "value": 77900, "unit": "Da"}, {"measurement": "Ka", "setting": "[12]", "value": "4.2e+08", "unit": "M⁻¹"}, {"measurement": "koff", "setting": "[12]", "value": 0.00174, "unit": "s⁻¹"}, {"measurement": "kon", "setting": "[12]", "value": 740000, "unit": "M⁻¹ s⁻¹"}]}
